The record followed here is patent publication US20240026407A1, “MODIFICATION OF SAPONINS” (GLAXOSMITHKLINE BIOLOGICALS SA, priority 2020, published 2024).

A value given as a limit tells only on which side of the number the result lay.

To fix the notation:
B1: 4 (protein, listed as Microbacterium azadirachtae)
chain: MTLPPFDVDTVLAALTLEEKASLLSGLDDWYTQPLDRPGLPQRVPSIEVGDGPHGLRKETGVDMVWVPATGFPTASAMGASWDRQLMRRVAAAIGEEARAEGVQVVLGPGVNMKRSPLCGRNFEYFSEDPVHSGELGAAYVDGVQAVGVGTSLKHFAANNQEIERTRISVVADERTLRETYLSAFERVVTKADPWTVMCSYNRLLGVHASQNHWLLTEVLRDEWGYRGAVVSDWNAVHDRVAALRAGLDLEMPGTQGATDAEIVAAVQDGQLDIGVVDAAARRVLELVARAYPGADRVNGAVMDLGHAAGDRLTAEQLRLLRAAEHHELAREAAIGSMTLLRNETIPGGGGPALPLEEHSEGAVAVVGAFAEHARVQGGGSSGVDPTRIDAPLAAIRAIANGRVHYAPGYIYEVKNAYQDDNLAILAAHGVVTEEEKPRVARRSATLAKELQLAEAVQHLGKRPLSAAAERLIDEAAVIAGQAETIVVFAGLPLSYEQEANDRDTLALPADQVALILRMADVREKTGARLVVVLSNGSPVTMDPWHDRVDAIVEAWLGGQAVGSAVAEVLFGRSNPSGKLAETFPLALEDTPGFPNWLGERGTVLYGEGVFIGYRWYDALRREVRYPFGHGLSYTTFSYSDLRVDLVDAEVGRVTVTCTVTNTGDVAGQEVVQLYVGDPDAEVQRPLRELRGFEKVKIEAGESTRVRFELLNRDFAYWDSAAVRPDGKTGLWRREGGEFRIEVGASSRDIRLSESIVLSDDPSIPPLVPDAELLDIAASRFVQGHAG
B2: 319 (protein)
chain: MTAAPSDKELLALLSQLTTAEKVLLLSGKSTWETPEIERLHVPSLKVSDGPNGARGAQFTDGTTAACFPACVSLAATFNRSLARQIGVALGEETQTKGAYVLLGPTVCPHRSPLGGRNFESFSEDPFLTGELASEYVVGLQSQRVAATVKHFAINEQDTRRFTVNETVSERAMREIYLRPFEIVVKKADPWCIMTSYPKVNGAYVDDQTTFLKDILRDEWKFKGLVMTDWGAASAAIANGIRNGLDLEMPGPPHRRQPAVVHKLIEDGKVDVKDIDDRVLPLLKLLRQTGKFTDRREPVPERAISRPEHEKLIREAGGEGVVLLKNSDGALPLKPSHLQNIAVLGPLAKHAAAHGGGSASLNCHYKISPFDAIKSRLPDSKLSYSKGAHVFRAYPDFVAGTRNRLGNPGFAADFYENLNLTGEPFYTEEYPRGSFMTLMNENVVTAKSARLSTAYSPNVSGKHYLSFSGMGPARLFINGEFQGEIKETAEAMSFLLGVQEERHLQYDFVTGKTYDIVIESTISPNPNAELYLADDQIAVHLGFVSQQEMDADVLSEAVSFAKDADVALIFVGNTPQWETEGQDMATMTLPADGSQDKLIAEVAKVNPNTIVIITTGVPVELPWLENVAAVVQAWYGGQETGNSILDVLLGEVNPSGRLPMSWPKKNEHTACYGHFGLDSWDSREVEYVEGVNVGYRHFDSQYGTEQEVMFPFGYGLSYSTFEHSACALSGTLDANDENAKITVAVTVHNTSDVAGSEVVQVYVTPPKSRTGVERPPKALVAFEKIHLNPGAQKDIQLTFKRDGAAFWSEARKLWEVEAGEHEVHVSTSSSPQDIKSTLVLGITKGFTFHP
modifications: Colletotrichum gloeosporioides
B3: 324 (protein, listed as Kluyveromyces marxianus)
chain: MSKFDVEQLLSELNQDEKISLLSAVDFWHTKKIERLGIPAVRVSDGPNGIRGTKFFDGVPSGCFPNGTGLASTFDRDLLETAGKLMAKESIAKNAAVILGPTTNMQRGPLGGRGFESFSEDPYLAGMATSSVVKGMQGEGIAATVKHFVCNDLEDQRFSSNSIVSERALREIYLEPFRLAVKHANPVCIMTAYNKVNGEHCSQSKKLLIDILRDEWKWDGMLMSDWFGTYTTAAAIKNGLDIEFPGPTRWRTRALVSHSLNSREQITTEDVDDRVRQVLKMIKFVVDNLEKTGIVENGPESTSNNTKETSDLLRKIAADSIVLLKNKNNILPLKKEDNIIVIGPNAKAKTSSGGGSASMNSYYVVSPYEGIVNKLGKEVDYTVGAYSHKSIGGLAESSLIDAAKPADAENSGLIAKFYSNPVEERSDDEEPFHVTKVNRSNVHLFDFKHEKVDPKNPYFFVTLTGQYVPQEDGDYIFSLQVYGSGLFYLNDELIIDQKHNQERGSFCFGAGTKERTKKLTLKKGQVYNVRVEYGSGPTSGLVGEFGAGGFQAGVIKAIDDDEEIRNAAELAAKHDKAVLIIGLNGEWETEGYDRENMDLPKRTNELVRAVLKANPNTVIVNQSGTPVEFPWLEDANALVQAWYGGNELGNAIADVLYGDVVPNGKLSLSWPFKLQDNPAFLNFKTEFGRVIYGEDIFVGYRYYEKLQRKVAFPFGYGLSYTTFELDISDFKVTDDKIAISVDVKNTGDKFAGSEVVQVYFSALNSKVSRPVKELKGFEKVHLEPGEKKTVNIDLELKDAISYFNEELGKWHVEAGEYLVSVGTSSDDILSVKEFKVEKELYWKGL
B4: 302 (protein, listed as Rhodococcus sp.)
chain: MTTRPDLTLEQQAALLSGHDFWSTEAIEEAGIPSVVLTDGPHGVRYQSGDSDHLGLHASLPATCFPLAVAVGSSWDRSVAEEVGRAVGREARALGVHVVLGPGVNIKRSPLCGRNFEYYSEDPLLSGVLGAAHVRGLQSVGVGACVKHFAANNQETDRMRVSADVDDRTLREIYLPAFERVVAEARPAAVMCSYNKVNGVSAAENRWLLTEVLREQWGFAGVVVSDWGAVADRVAGVTAGLDLEMPGSGGGTDRQVVDAVRDGRLDPRLVEASAHRVLALSDLVRPAAGDLDLDGQHALARRLAADCAVLLKNADGVLPLRRGQHVAVLGSFATTPRFQGGGSSHIAPTRVDPALDAVRALAAAHGLTVSAADGFPLGADGDARALLDEAVRVAAAADVAVVFAGLTEREESEGFDRDTLDLPPVQVALVRAVARAAPRTVVVLAHGGVVSLEGWHDEVDAILDGWLLGQAGGSAIADLLLGVATPSGHLAETVPLRLEDTPSYLNFPGEQGHVRYGEGVMVGYRGYETLRRAVRYPFGHGLSYTTFVTESLDVALGGDGTVAVRVRVRNAGDRAGKHVVQMYVATDAGPVRRPVRELRAFEKIELAPGEARDVELTLERRAFAYWDVELDDWVVAPGEYAIQVCADAATVLEARTVTLAGDVVSRPLSMESTVGEWFSHPTVGPAFLEVLAGATGSAPTPDPQEHAGLLRMVESIRMAQFLTFLPIPVPQEKLDELLALGGTVANSATDAAAGNRDHPAPTPPGQPGGP

A short description of one assay: Experiment 4-1: screening of glucosidases for deglycosylation with purified QS-18 (0.04 mg/ml) at pH 7.5 and room temperature. In kind it is biochemical, Quillaja saponaria. The settings on record: pH 7.5, room temperature, 20 h, clarified E. coli lysate, QS-18 2150 to QS-21 1988 by LCMS/MS. Here is the method: Nucleotide sequences were sub-cloned into pET24b+ for expression. 10 uL of E. coli cells (One Shot® BL21(DE3) chemically competent E. coli) were transferred to each well of a 96 well PCR plate (prechilled on ice). 10 uL autoclaved water was added to the DNA, resuspended by pipetting, and 1 uL of plasmid DNA (15-30 ng) was transferred to the competent cells. Immediately after addition, the resulting mixture was mixed by pipetting. Cells were heat shocked by placing the plate in a thermal cycler at 42° C. for 30 seconds then transferred directly to an ice bath for 2 min. 100 uL sterile Lysogeny Broth (LB) medium was added to each well containing transformed cells. The content of each plate was transferred into a 96-deep well plate pre-aliquoted with 400 uL LB and the plate was incubated at 37° C. with shaking and 85% humidity for 1 hour. After outgrowth, 500 uL of sterile LB containing 100 ug/mL kanamycin was added to the plates containing cells and plates incubated at 37° C. with shaking overnight (18 hours) with humidity control (85%).
1000 mLs of Overnight Express Media was supplemented with 1 mL kanamycin 50 mg/mL and 20 mL of 50% v/v glycerol added (50 ug/mL kanamycin final and 1% glycerol). 96-Well Assay Block 2 mL plates were aliquoted with 380 uL of media per well. Pre-inoculum (20 uL) from transformation plates was added. The plates were sealed appropriately and incubated at 37° C. at 300 with shaking for 2 h. After 2 h the temperature was lowered to 20° C. and incubation continued for 20 h.
The liquid cultures were centrifuged for 10 minutes at 4° C. The supernatant was discarded, plates blotted on an absorbent material to remove residue and the plates frozen at −80° C.
Lysis buffer was prepared according to the following protocol: • 1. Polymyxin B sulphate (0.5 mg/mL) was suspended in 100 mM potassium phosphate pH 7.5 • 2. The mixture was sonicated until polymyxin B sulphate had dissolved • 3. Lysozyme (1 mg/mL) and benzonase (0.1 uL/mL lysis buffer) were added
2 copies of each cell pellet plate were removed from −80 degC freezer and allowed to thaw. 200 uL of lysis buffer was added to each well of one copy of the cell pellet plates. Plates were shaken at room temperature for 10 mins. 190 uL of cell pellet/lysis buffer was transferred to a corresponding fresh cell pellet plate. These plates were incubated at room temperature with shaking for 2 hours. Lysate was clarified by centrifugation (10 min, 4 degC).
QS-18 was obtained by analogous methods to Example 3, collecting a QS-18 containing phenyl fraction following phenyl treatment (presence of m/z corresponding to key components was confirmed by MS and the phenyl fraction then used without further treatment). QS-18 solution was prepared by diluting aqueous QS-18 (ca 1 mg/mL) with 100 mM potassium phosphate pH 7.5 to 0.2 mg/ml. 40 uL clarified lysate was transferred into fresh 96 well PCR plates. 10 uL QS-18 solution added to each well of lysate to a final concentration of 0.04 mg/ml. Incubated at room temperature with shaking for 20 h. Quenched with 50 uL MeCN and shaken at room temperature for 10 mins. Samples were analysed by LC-MS/MS using a Waters Acquity H class coupled to a Waters Xevo Tandem Quadrupole (TQD) Mass Spectrometer.
Enzyme activity was calculated as: […]
Candidate enzymes with % conversion >0.72%, i.e. >3 S.D. above negative control, were considered to be positive hits and are listed below in Table 7. Sample results are shown in FIG. 10 for a QS-21 standard, FIG. 11 for negative control and FIG. 12 for treatment with the glucosidase of SEQ ID No. 262.
Take B1: the “Expt 4-1 % conv” value was 0.4%.
Regarding B2, the “Expt 4-1 % conv” value turned out to be 10.2%.
For B3, the “Expt 4-1 % conv” value is reported as 13.6%.
With B4, the “Expt 4-1 % conv” value stood at 17.2%.

The next assay in a line: Experiment 4-2: screening of glucosidases for deglycosylation with purified QS-18 (1 mg/ml) at pH 6 and 30 deg C. In kind it is biochemical, Quillaja saponaria. Particulars: pH 6, 30 degC, 18 hrs, clarified lysate, LCMS/MS. Here is the method: Lysates were prepared in an identical manner to Experiment 4-1 above, except the lysis buffer was prepared in 100 mM potassium phosphate buffer pH 6. QS-18 solution was prepared by dissolving QS-18 in 100 mM potassium phosphate buffer pH 6 (2 mg/mL).
12 uL clarified lysate was transferred into fresh 96 well PCR plates. 12 uL QS-18 solution was added (1 mg/ml final concentration), plates sealed and incubated overnight (30° C.) for 18 hrs. After quenching with 25 uL MeCN and shaking for 10 mins (RT), samples were analysed using the LC-MS/MS protocol described in Experiment 4-1 and enzyme activity determined in an analogous manner.
For B1, the “Expt 4-2 % conv” value was 0.6%.
Same read-out and setting: the value for B2 was 0.4%; that for B3 was 0.9%; that for B4 was 2.1%.

Another assay in a line: Experiment 4-4: screening of glucosidases for deglycosylation of QS-18 in crude bark extract (1 in 20 dilution) to QS-21. The assay is classed as biochemical, Quillaja saponaria. Particulars: CBE 1 in 20 dilution, pH 6, 25 degC, 18 hours; % conversion of Middle Peak by UV HPLC. As to the method:
Lysates were prepared as in Experiment 4-2.
Crude bark extract (CBE) was adjusted to pH 6 by dropwise addition of 2M NaOH with stirring. 25 uL of clarified lysate was transferred to a reaction plate, 22.5 ul of 100 mM potassium phosphate buffer pH 6 was added, 2.5 ul CBE at pH 6 was added. Reaction plates were sealed, incubated at 25 degC with shaking for 18 hours, then quenched by addition of 50 uL acetonitrile (MeCN). Quenched reaction plates were re-sealed and incubated at 20 degC with shaking for 10 min. The reaction plates were centrifuged (10 min, 4 degC) and analysed by UV HPLC with the method below:
Three key peaks of interest are apparent using this chromatography: Left Peak (retention time approximately 2.30-2.35 min) comprising mainly QS-17 family components; Middle Peak (retention time approximately 2.37-2.42 min) comprising mainly QS-18 family components and desglucosyl-QS-17 family components; and Right Peak (retention time approximately 2.44-2.50 min) comprising mainly QS-21 family components. Peak identity was supported by MS/MS.
Enzyme activity is calculated as the % conversion of the Middle Peak present in the crude bark extract: […]
Regarding B2, the “Expt 4-4 % conv” value is listed as less than 3%.
For B3, the “Expt 4-4 % conv” value is less than 3%.
As for B4, the “Expt 4-4 % conv” value is given as less than 3%.
